Data reported in patent publication US20240076386.

Assay: AC-SINS self-interaction

Polyreactivity negative control
AC-SINS (wavelength of maximum absorbance relative to blank, nm): 1 nm
